Source: patent US20120172293A1 (Takeda / Millennium, published 2012)
One block for each molecule: values may come before it. Starred links: 1 amine or outer side, 2 acyl side, 3 side chain; linkers in the order of their positions; H or OH if unused. Non-standard residues stand in square brackets, D forms with d. Primed or numbered codes have the meaning given here. No end group written: not given here. *: point of attachment. Tyr(Me) = O-methyltyrosine, COc1ccc(C[C@H](N[*:1])C(=O)[*:2])cc1; Thr(Me) = O-methylthreonine, CO[C@H](C)[C@H](N[*:1])C(=O)[*:2]; Ala(piperidin-4-yl) = O=C([C@H](CC1CCN([*:3])CC1)N[*:1])[*:2]; Ser(Me)″ = O-methylserine, COC[C@H](N[*:1])C(=O)[*:2]; Amidino = amidino group, N=C(N)*; Cha = N[C@@H](CC1CCCCC1)C(=O)O; 4Amb = NCc1ccc(C(=O)O)cc1; Isobutyryl = CC(C)C(=O)*; 2Abz = Nc1ccccc1C(=O)O; Abu = CC[C@H](N)C(=O)O; Dap = NC[C@H](N)C(=O)O; Aib = CC(C)(N)C(=O)O; Inp = O=C(O)C1CCNCC1; Bz = O=C(c1ccccc1)*

Assays:
[1] = molecular target: human Y2 receptor (human) (UniProt P49146); experiment: RBA: [125I]-PYY displacement, hY2R/CHO membranes
[2] = molecular target: human Y2 receptor (human) (UniProt P49146); experiment: cell-based or functional assay
human Y2 receptor [3] = molecular target: T1, human Y2 receptor (human, UniProt P49146 1-381); experiment: RBA: [125I]-PYY displacement, hY2R/CHO membranes
T1 construct: whole, on cells; used as membrane fraction of hY2R/CHO cells; also called human NPY2R; hY2R
T1 sequence (looked up): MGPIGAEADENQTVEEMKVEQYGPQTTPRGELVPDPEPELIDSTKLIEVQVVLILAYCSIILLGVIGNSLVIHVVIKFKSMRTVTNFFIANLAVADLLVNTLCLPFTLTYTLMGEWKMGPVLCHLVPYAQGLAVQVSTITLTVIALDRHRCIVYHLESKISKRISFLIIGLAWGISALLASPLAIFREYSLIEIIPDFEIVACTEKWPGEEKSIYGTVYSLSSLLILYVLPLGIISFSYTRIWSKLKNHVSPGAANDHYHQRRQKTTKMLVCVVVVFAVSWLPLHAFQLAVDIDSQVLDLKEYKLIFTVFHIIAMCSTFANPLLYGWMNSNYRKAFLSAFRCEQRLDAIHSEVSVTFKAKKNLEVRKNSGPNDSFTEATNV
How it was run: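 Bound radioligand was collected by filtration on PEI-treated GF/C filters, washed with Tris/MgCl₂/NaCl/CHAPS buffer pH 7.4, and counted by scintillation; IC₅₀ values were calculated.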

human Y2 receptor [4] = molecular target: T1, human Y2 receptor; experiment: cell-based or functional assay

B2: Ac-[Ala26, Ile28,31]-PYY(20-36) (peptide)
peptide: Ac-YYASLRAYINLITRQRY-NH2
notes: also called compound No. 5
IC50 Ratio (vs PYY(3-36)) (human Y2 receptor [3]): 9.8 ratio | GBA EC50 Ratio (vs PYY(3-36)), [35S]GTPγS (human Y2 receptor [4]): 8.1 ratio

B3: 4-Aminomethylbenzoyl-[Ala26, Ile28,31, Thr(Me)32]-PYY(25-36) (peptide)
peptide: Bz-RAYINLI[Thr(Me)]RQRY-NH2
notes: also called compound No. 74
IC50 Ratio (vs PYY(3-36)) (human Y2 receptor [3]): 14 ratio | GBA EC50 Ratio (vs PYY(3-36)), [35S]GTPγS (human Y2 receptor [4]): 24 ratio

B5: [Abz(2)24, Cha27,36, Ile28,31, Trp30]-PYY(24-36) (peptide)
peptide: [2Abz]RH[Cha]INWITRQR[Cha]-NH2
modifications: N-terminus assumed
SMILES: CC[C@H](C)[C@H](NC(=O)[C@H](CC1CCCCC1)NC(=O)[C@H](Cc1c[nH]cn1)NC(=O)[C@H](CCCNC(=N)N)NC(=O)c1ccccc1N)C(=O)N[C@@H](CC(N)=O)C(=O)N[C@@H](Cc1c[nH]c2ccccc12)C(=O)N[C@H](C(=O)N[C@H](C(=O)N[C@@H](CCCNC(=N)N)C(=O)N[C@@H](CCC(N)=O)C(=O)N[C@@H](CCCNC(=N)N)C(=O)N[C@@H](CC1CCCCC1)C(N)=O)[C@@H](C)O)[C@@H](C)CC
notes: also called compound No. 68
IC50 Ratio (vs PYY(3-36)) (human Y2 receptor [3]): 19 ratio | GBA EC50 Ratio (vs PYY(3-36)), [35S]GTPγS (human Y2 receptor [4]): 15 ratio

B7: Isobutanoyl-[Abu26, Cha27,36, Gln28, Aib31]-PYY(25-36) (peptide)
peptide: Isobutyryl-R[Abu][Cha]QNL[Aib]TRQR[Cha]-NH2
SMILES: CC[C@H](NC(=O)[C@H](CCCNC(=N)N)NC(=O)C(C)C)C(=O)N[C@@H](CC1CCCCC1)C(=O)N[C@@H](CCC(N)=O)C(=O)N[C@@H](CC(N)=O)C(=O)N[C@@H](CC(C)C)C(=O)NC(C)(C)C(=O)N[C@H](C(=O)N[C@@H](CCCNC(=N)N)C(=O)N[C@@H](CCC(N)=O)C(=O)N[C@@H](CCCNC(=N)N)C(=O)N[C@@H](CC1CCCCC1)C(N)=O)[C@@H](C)O
IC50 Ratio (vs PYY(3-36)) [1]: 45 | GBA EC50 Ratio (vs PYY(3-36)), [35S]GTPγS [2]: 30

B8: Isobutanoyl-[Abu26, Cha27,36, His28, Aib31]-PYY(25-36) (peptide)
peptide: Isobutyryl-R[Abu][Cha]HNL[Aib]TRQR[Cha]-NH2
SMILES: CC[C@H](NC(=O)[C@H](CCCNC(=N)N)NC(=O)C(C)C)C(=O)N[C@@H](CC1CCCCC1)C(=O)N[C@@H](Cc1c[nH]cn1)C(=O)N[C@@H](CC(N)=O)C(=O)N[C@@H](CC(C)C)C(=O)NC(C)(C)C(=O)N[C@H](C(=O)N[C@@H](CCCNC(=N)N)C(=O)N[C@@H](CCC(N)=O)C(=O)N[C@@H](CCCNC(=N)N)C(=O)N[C@@H](CC1CCCCC1)C(N)=O)[C@@H](C)O
IC50 Ratio (vs PYY(3-36)) [1]: 19 | GBA EC50 Ratio (vs PYY(3-36)), [35S]GTPγS [2]: 13

B9: 4-Aminomethylbenzoyl-[Ala26, Ile28,31, Tyr(Me)36]-PYY(25-36) (peptide)
peptide: [4Amb]RAYINLITRQR[Tyr(Me)]-NH2
modifications: N-terminus assumed
SMILES: CC[C@H](C)[C@H](NC(=O)[C@H](Cc1ccc(O)cc1)NC(=O)[C@H](C)NC(=O)[C@H](CCCNC(=N)N)NC(=O)c1ccc(CN)cc1)C(=O)N[C@@H](CC(N)=O)C(=O)N[C@@H](CC(C)C)C(=O)N[C@H](C(=O)N[C@H](C(=O)N[C@@H](CCCNC(=N)N)C(=O)N[C@@H](CCC(N)=O)C(=O)N[C@@H](CCCNC(=N)N)C(=O)N[C@@H](Cc1ccc(OC)cc1)C(N)=O)[C@@H](C)O)[C@@H](C)CC
notes: also called compound No. 7
IC50 Ratio (vs PYY(3-36)) (human Y2 receptor [3]): 5 ratio | GBA EC50 Ratio (vs PYY(3-36)), [35S]GTPγS (human Y2 receptor [4]): 4.7 ratio

Other lines, results leading:

IC50 Ratio (vs PYY(3-36)) [1]: 0.92 | GBA EC50 Ratio (vs PYY(3-36)), [35S]GTPγS [2]: 1.3
Molecule: Ac-[Lys(Me2)23, D-Pro24, Cha27,28,36, Aib31]-PYY(23-36) (peptide)

IC50 Ratio (vs PYY(3-36)) (human Y2 receptor [3]): 34 ratio | GBA EC50 Ratio (vs PYY(3-36)), [35S]GTPγS (human Y2 receptor [4]): 22 ratio
B1: Benzoyl-[Dap27, Ile28,31, Trp30, Cha36]-PYY(25-36) (peptide)
peptide: Bz-RH[Dap]INWITRQR[Cha]-NH2
SMILES: CC[C@H](C)[C@H](NC(=O)[C@H](CN)NC(=O)[C@H](Cc1c[nH]cn1)NC(=O)[C@H](CCCNC(=N)N)NC(=O)c1ccccc1)C(=O)N[C@@H](CC(N)=O)C(=O)N[C@@H](Cc1c[nH]c2ccccc12)C(=O)N[C@H](C(=O)N[C@H](C(=O)N[C@@H](CCCNC(=N)N)C(=O)N[C@@H](CCC(N)=O)C(=O)N[C@@H](CCCNC(=N)N)C(=O)N[C@@H](CC1CCCCC1)C(N)=O)[C@@H](C)O)[C@@H](C)CC
notes: also called compound No. 67

IC50 Ratio (vs PYY(3-36)) [1]: 19 | GBA EC50 Ratio (vs PYY(3-36)), [35S]GTPγS [2]: 21
B4: Benzoyl-[Asn26, Cha27,28,36, Aib31]-PYY(25-36) (peptide)
peptide: Bz-RN[Cha][Cha]NL[Aib]TRQR[Cha]-NH2
SMILES: CC(C)C[C@H](NC(=O)[C@H](CC(N)=O)NC(=O)[C@H](CC1CCCCC1)NC(=O)[C@H](CC1CCCCC1)NC(=O)[C@H](CC(N)=O)NC(=O)[C@H](CCCNC(=N)N)NC(=O)c1ccccc1)C(=O)NC(C)(C)C(=O)N[C@H](C(=O)N[C@@H](CCCNC(=N)N)C(=O)N[C@@H](CCC(N)=O)C(=O)N[C@@H](CCCNC(=N)N)C(=O)N[C@@H](CC1CCCCC1)C(N)=O)[C@@H](C)O

IC50 Ratio (vs PYY(3-36)) (human Y2 receptor [3]): 4.8 ratio | GBA EC50 Ratio (vs PYY(3-36)), [35S]GTPγS (human Y2 receptor [4]): 2.9 ratio
B6: Benzoyl-[Ala(4Pip)27, Ile28,31, Trp30, Cha36]-PYY(25-36) (peptide)
peptide: Bz-RH[Ala(piperidin-4-yl)]INWITRQR[Cha]-NH2
modifications: also: Ala(4Pip) D or L form not assigned (later peak)
notes: Ala(4Pip) is any of D-form and L-form; also called compound No. 66

IC50 Ratio (vs PYY(3-36)) (human Y2 receptor [3]): 1.9 ratio | GBA EC50 Ratio (vs PYY(3-36)), [35S]GTPγS (human Y2 receptor [4]): 1.1 ratio
B10: Amidino-[Gly23, Pic(4)24, Cha27,36, Ile 28,31, Trp30]-PYY(23-36) (peptide)
peptide: Amidino-G[Inp]RH[Cha]INWITRQR[Cha]-NH2
SMILES: CC[C@H](C)[C@H](NC(=O)[C@H](CC1CCCCC1)NC(=O)[C@H](Cc1c[nH]cn1)NC(=O)[C@H](CCCNC(=N)N)NC(=O)C1CCN(C(=O)CNC(=N)N)CC1)C(=O)N[C@@H](CC(N)=O)C(=O)N[C@@H](Cc1c[nH]c2ccccc12)C(=O)N[C@H](C(=O)N[C@H](C(=O)N[C@@H](CCCNC(=N)N)C(=O)N[C@@H](CCC(N)=O)C(=O)N[C@@H](CCCNC(=N)N)C(=O)N[C@@H](CC1CCCCC1)C(N)=O)[C@@H](C)O)[C@@H](C)CC
notes: also called compound No. 96

IC50 Ratio (vs PYY(3-36)) (human Y2 receptor [3]): 15 ratio | GBA EC50 Ratio (vs PYY(3-36)), [35S]GTPγS (human Y2 receptor [4]): 16 ratio
B11: Benzoyl-[Cha27,36, Ile28, Arg31]-PYY(25-36) (peptide)
peptide: Bz-RH[Cha]INLRTRQR[Cha]-NH2
SMILES: CC[C@H](C)[C@H](NC(=O)[C@H](CC1CCCCC1)NC(=O)[C@H](Cc1c[nH]cn1)NC(=O)[C@H](CCCNC(=N)N)NC(=O)c1ccccc1)C(=O)N[C@@H](CC(N)=O)C(=O)N[C@@H](CC(C)C)C(=O)N[C@@H](CCCNC(=N)N)C(=O)N[C@H](C(=O)N[C@@H](CCCNC(=N)N)C(=O)N[C@@H](CCC(N)=O)C(=O)N[C@@H](CCCNC(=N)N)C(=O)N[C@@H](CC1CCCCC1)C(N)=O)[C@@H](C)O
notes: also called compound No. 65

IC50 Ratio (vs PYY(3-36)) [1]: 18 | GBA EC50 Ratio (vs PYY(3-36)), [35S]GTPγS [2]: 8.7
B12: Benzoyl-[Ser(Me)26, Cha27,28,36, Aib31]-PYY(25-36) (peptide)
peptide: Bz-R[Ser(Me)″][Cha][Cha]NL[Aib]TRQR[Cha]-NH2
SMILES: COC[C@H](NC(=O)[C@H](CCCNC(=N)N)NC(=O)c1ccccc1)C(=O)N[C@@H](CC1CCCCC1)C(=O)N[C@@H](CC1CCCCC1)C(=O)N[C@@H](CC(N)=O)C(=O)N[C@@H](CC(C)C)C(=O)NC(C)(C)C(=O)N[C@H](C(=O)N[C@@H](CCCNC(=N)N)C(=O)N[C@@H](CCC(N)=O)C(=O)N[C@@H](CCCNC(=N)N)C(=O)N[C@@H](CC1CCCCC1)C(N)=O)[C@@H](C)O
